In IntAct's records for PubMed 15024067:

B1: RNA-binding protein PIN4 (Saccharomyces cerevisiae), P34217 (parent)
chain: METSSFENAPPAAINDAQDNNINTETNDQETNQQSIETRDAIDKENGVQTETGENSAKNAEQNVSSTNLNNAPTNGALDDDVIPNAIVIKNIPFAIKKEQLLDIIEEMDLPLPYAFNYHFDNGIFRGLAFANFTTPEETTQVITSLNGKEISGRKLKVEYKKMLPQAERERIEREKREKRGQLEEQHRSSSNLSLDSLSKMSGSGNNNTSNNQLFSTLMNGINANSMMNSPMNNTINNNSSNNNNSGNIILNQPSLSAQHTSSSLYQTNVNNQAQMSTERFYAPLPSTSTLPLPPQQLDFNDPDTLEIYSQLLLFKDREKYYYELAYPMGISASHKRIINVLCSYLGLVEVYDPRFIIIRRKILDHANLQSHLQQQGQMTSAHPLQPNSTGGSMNRSQSYTSLLQAHAAAAANSISNQAVNNSSNSNTINSNNGNGNNVIINNNSASSTPKISSQGQFSMQPTLTSPKMNIHHSSQYNSADQPQQPQPQTQQNVQSAAQQQQSFLRQQATLTPSSRIPSGYSANHYQINSVNPLLRNSQISPPNSQIPINSQTLSQAQPPAQSQTQQRVPVAYQNASLSSQQLYNLNGPSSANSQSQLLPQHTNGSVHSNFSYQSYHDESMLSAHNLNSADLIYKSLSHSGLDDGLEQGLNRSLSGLDLQNQNKKNLW
B2: Serine/threonine-protein kinase RAD53 (Saccharomyces cerevisiae), P22216 (parent)
chain: MENITQPTQQSTQATQRFLIEKFSQEQIGENIVCRVICTTGQIPIRDLSADISQVLKEKRSIKKVWTFGRNPACDYHLGNISRLSNKHFQILLGEDGNLLLNDISTNGTWLNGQKVEKNSNQLLSQGDEITVGVGVESDILSLVIFINDKFKQCLEQNKVDRIRSNLKNTSKIASPGLTSSTASSMVANKTGIFKDFSIIDEVVGQGAFATVKKAIERTTGKTFAVKIISKRKVIGNMDGVTRELEVLQKLNHPRIVRLKGFYEDTESYYMVMEFVSGGDLMDFVAAHGAVGEDAGREISRQILTAIKYIHSMGISHRDLKPDNILIEQDDPVLVKITDFGLAKVQGNGSFMKTFCGTLAYVAPEVIRGKDTSVSPDEYEERNEYSSLVDMWSMGCLVYVILTGHLPFSGSTQDQLYKQIGRGSYHEGPLKDFRISEEARDFIDSLLQVDPNNRSTAAKALNHPWIKMSPLGSQSYGDFSQISLSQSLSQQKLLENMDDAQYEFVKAQRKLQMEQQLQEQDQEDQDGKIQGFKIPAHAPIRYTQPKSIEAETREQKLLHSNNTENVKSSKKKGNGRFLTLKPLPDSIIQESLEIQQGVNPFFIGRSEDCNCKIEDNRLSRVHCFIFKKRHAVGKSMYESPAQGLDDIWYCHTGTNVSYLNNNRMIQGTKFLLQDGDEIKIIWDKNNKFVIGFKVEINDTTGLFNEGLGMLQEQRVVLKQTAEEKDLVKKLTQMMAAQRANQPSASSSSMSAKKPPVSDTNNNGNNSVLNDLVESPINANTGNILKRIHSVSLSQSQIDPSKKVKRAKLDQTSKGPENLQFS
partner: B1 chain

Variants of: B1
Conditions: with rad53_yeast RAD53, P22216

Variant | effect of a mutation on the interaction
T305A | disrupting interaction

Variants of: B2
Conditions: with pin4_yeast PIN4, P34217

Variant | effect of a mutation on the interaction
R70K | disrupting interaction
R70A | disrupting interaction
S105T | disrupting interaction
N107A | disrupting interaction
